In article doi:10.64898/2025.12.19.695307:
pKd: −log10 of the molar value.

Biological target: R1-32 (human)
Test: BLI

SARS-CoV-2 Omicron BA.2.11 RBD (from UniProt P0DTC2 332-527) (domain or fragment)
pKd: < 7.26
